Source: patent US20030054411A1, “GPR motifs and uses thereof” (priority 2001, published 2003)

Tested on: Giα3 in DDT1-MF2 cell lysates
Assay: GST-AGS3 interaction with endogenous Giα3 in cell lysates
Assay type: binding
Settings: 30 uM GDP or GTPγS
Description: A) Sequence of full length rat AGS3. The shaded and overlined sequences represent the tetratricopeptide repeat motif and a repeated segment of amino acids (I-IV), respectively, as discussed in the text. The underlined amino acids indicate the fragment (cDNA #53) isolated in the original yeast screen. B) The four repeat domains in the carboxyl terminus half of AGS3, human LGN, the predicted C. elegans protein and related sequences identified by the motif search program MEME were aligned and used to define a consensus sequence as described in the Examples. Right panel—Interaction of wild type AGS3 and AGS3 mutants with Giα2 in mammalian cell extracts. The AGS3 eDNA isolated in the yeast screen and shown to interact with Gα subunits (FIG. 2B) was modified by site-directed mutagenesis to disrupt conserved residues within the GPR motif. The number of the amino acids altered in the mutant constructs (F8R, Q15A and R23F) refers to their position in the sequence found in the left panel aligning the conserved domains. […] Giα subunits were detected on membrane transfers with the Giα3 antibody and Gβ was detected with an amino terminus antibody. […]
Immunoblotting and G-protein interaction assays. […] Bound proteins were detected by immunoblotting membrane transfers with specific antisera. […]

B1: AGS3: Activator of G-protein Signalling 3; bioactive 74 amino acid fragment isolated in yeast screen, tested as GST fusion (protein)
chain: MLIKYQSSRIDDQRCPPPDVLPRGPTMPDEDFFSLIQRVQAKRMDEQRVDLAGSPDQEASGLPDPRQQCPPGAS
modifications: left off: a dimerising Fc or GST
Q: B1 was tested. Which “nucleotide preference of interaction with Gα in crude cell lysate” value did it give?
A: preferentially interacted with GαGDP versus GTPγS
